Results reported in paper PMC10035430.

Legend:
[1] = molecular target: GWS1B form II RubisCO (CbbM) from an uncultivated Gallionellaceae species (uncultivated Gallionellaceae sp. (groundwater aquifer metagenome)); assay: SEC
[2] = molecular target: GWS1B form II RubisCO (CbbM) from an uncultivated Gallionellaceae species (uncultivated Gallionellaceae sp. (groundwater aquifer metagenome)); assay: SEC-MALS
[3] = molecular target: GWS1B form II RubisCO (CbbM) from an uncultivated Gallionellaceae species (uncultivated Gallionellaceae sp. (groundwater aquifer metagenome)); assay: crystal structure

stoichiometry N [1]: 6
stoichiometry N [2]: 6
stoichiometry N [3]: 6
Substance: GWS1B form II RubisCO (CbbM) from an uncultivated Gallionellaceae species (enzyme)
